Experimental data from the supplement of paper PMC9112550, “Optimization of the antimicrobial peptide Bac7 by deep mutational scanning” (BMC Biology, 2022).

Test system: Escherichia coli TOP10
Assay: shrunken log2 fold change of peptide-encoding DNA abundance (4.5 h post-induction vs induction); higher = less antimicrobial activity (less host growth inhibition)
Details: time post-induction: 4.5 h; library: site-saturation at positions 5, 18, 19, 20
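Further: peptides expressed intracellularly from a pBAD plasmid library in pooled LB shake-flask culture, induced with 0.3% L-arabinose, DNA abundance read by NGS, three biological replicates, DESeq2 with apeglm shrinkage.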

Row | Sequence | shrunken log2 fold change
1 | RRIRMRPPRLPRPRPRPLKLPRP | 0.0525
2 | RRIRMRPPRLPRPRPRPLLLPRP | -0.32
3 | RRIRMRPPRLPRPRPRPLNFPRP | -0.00433
4 | RRIRMRPPRLPRPRPRPLRGPRP | 2.15
5 | RRIRMRPPRLPRPRPRPLRQPRP | -0.214
6 | RRIRMRPPRLPRPRPRPLSEPRP | 0.511
7 | RRIRMRPPRLPRPRPRPLSLPRP | 0.0457
8 | RRIRMRPPRLPRPRPRPLTVPRP | 0.169
9 | RRIRMRPPRLPRPRPRPLVSPRP | 0.162
10 | RRIRMRPPRLPRPRPRPLWGPRP | 0.119
11 | RRIRMRPPRLPRPRPRPLWRPRP | 0.704
12 | RRIRMRPPRLPRPRPRPLYCPRP | -0.396
13 | RRIRMRPPRLPRPRPRPLYNPRP | -0.335
14 | RRIRMRPPRLPRPRPRPMCIPRP | -0.296
15 | RRIRMRPPRLPRPRPRPMCTPRP | -0.0175
16 | RRIRMRPPRLPRPRPRPMCVPRP | 1.45
17 | RRIRMRPPRLPRPRPRPMEQPRP | 1.29
18 | RRIRMRPPRLPRPRPRPMERPRP | -0.0334
19 | RRIRMRPPRLPRPRPRPMFRPRP | -0.0348
20 | RRIRMRPPRLPRPRPRPMICPRP | -0.0412
21 | RRIRMRPPRLPRPRPRPMKNPRP | 0.328
22 | RRIRMRPPRLPRPRPRPMKYPRP | 0.0979
23 | RRIRMRPPRLPRPRPRPMLFPRP | 0.138
24 | RRIRMRPPRLPRPRPRPMNRPRP | -0.24
25 | RRIRMRPPRLPRPRPRPMNTPRP | 0.206

Row | Sequence | shrunken log2 fold change
26 | RRIRMRPPRLPRPRPRPMPFPRP | 0.221
27 | RRIRMRPPRLPRPRPRPMPLPRP | 0.00106
28 | RRIRMRPPRLPRPRPRPMRRPRP | 0.487
29 | RRIRMRPPRLPRPRPRPMRYPRP | -0.0558
30 | RRIRMRPPRLPRPRPRPMSMPRP | 0.11
31 | RRIRMRPPRLPRPRPRPMSSPRP | 0.0418
32 | RRIRMRPPRLPRPRPRPMTEPRP | 0.12
33 | RRIRMRPPRLPRPRPRPMVAPRP | 0.12
34 | RRIRMRPPRLPRPRPRPMVSPRP | 0.0423
35 | RRIRMRPPRLPRPRPRPMVTPRP | 0.131
36 | RRIRMRPPRLPRPRPRPMWFPRP | 0.233
37 | RRIRMRPPRLPRPRPRPMYFPRP | 0.178
38 | RRIRMRPPRLPRPRPRPMYGPRP | 0.0383
39 | RRIRMRPPRLPRPRPRPMYLPRP | -0.0638
40 | RRIRMRPPRLPRPRPRPNALPRP | 0.313
41 | RRIRMRPPRLPRPRPRPNCNPRP | 0.675
42 | RRIRMRPPRLPRPRPRPNDIPRP | -0.0213
43 | RRIRMRPPRLPRPRPRPNDVPRP | -0.00114
44 | RRIRMRPPRLPRPRPRPNEEPRP | -0.0651
45 | RRIRMRPPRLPRPRPRPNEQPRP | 0.37
46 | RRIRMRPPRLPRPRPRPNFLPRP | -0.0651
47 | RRIRMRPPRLPRPRPRPNHEPRP | 0.0645
48 | RRIRMRPPRLPRPRPRPNIHPRP | -0.144
49 | RRIRMRPPRLPRPRPRPNILPRP | 0.057
50 | RRIRMRPPRLPRPRPRPNITPRP | 0.314

Row | Sequence | shrunken log2 fold change
51 | RRIRMRPPRLPRPRPRPNLCPRP | 0.015
52 | RRIRMRPPRLPRPRPRPNLSPRP | -0.436
53 | RRIRMRPPRLPRPRPRPNLTPRP | 0.0283
54 | RRIRMRPPRLPRPRPRPNMPPRP | -0.286
55 | RRIRMRPPRLPRPRPRPNNAPRP | -0.0978
56 | RRIRMRPPRLPRPRPRPNNGPRP | 0.0562
57 | RRIRMRPPRLPRPRPRPNNQPRP | -0.0328
58 | RRIRMRPPRLPRPRPRPNPEPRP | 0.406
59 | RRIRMRPPRLPRPRPRPNQDPRP | -0.123
60 | RRIRMRPPRLPRPRPRPNQQPRP | 0.0339
61 | RRIRMRPPRLPRPRPRPNQSPRP | 0.176
62 | RRIRMRPPRLPRPRPRPNQTPRP | -0.0789
63 | RRIRMRPPRLPRPRPRPNSQPRP | -0.075
64 | RRIRMRPPRLPRPRPRPNSYPRP | -0.0962
65 | RRIRMRPPRLPRPRPRPNTTPRP | 0.191
66 | RRIRMRPPRLPRPRPRPNVDPRP | 0.0854
67 | RRIRMRPPRLPRPRPRPNVKPRP | -0.0702
68 | RRIRMRPPRLPRPRPRPNWFPRP | -0.607
69 | RRIRMRPPRLPRPRPRPNYEPRP | -0.122
70 | RRIRMRPPRLPRPRPRPNYHPRP | -0.525
71 | RRIRMRPPRLPRPRPRPPCDPRP | 0.506
72 | RRIRMRPPRLPRPRPRPPCIPRP | -0.143
73 | RRIRMRPPRLPRPRPRPPCNPRP | 0.0147
74 | RRIRMRPPRLPRPRPRPPDFPRP | 0.549
75 | RRIRMRPPRLPRPRPRPPDHPRP | 0.456

Row | Sequence | shrunken log2 fold change
76 | RRIRMRPPRLPRPRPRPPENPRP | -0.0255
77 | RRIRMRPPRLPRPRPRPPFPPRP | 0.671
78 | RRIRMRPPRLPRPRPRPPHHPRP | 0.527
79 | RRIRMRPPRLPRPRPRPPHPPRP | 0.873
80 | RRIRMRPPRLPRPRPRPPIMPRP | 0.0866
81 | RRIRMRPPRLPRPRPRPPIPPRP | 0.556
82 | RRIRMRPPRLPRPRPRPPKEPRP | -0.0231
83 | RRIRMRPPRLPRPRPRPPKNPRP | 1.18
84 | RRIRMRPPRLPRPRPRPPLQPRP | 0.661
85 | RRIRMRPPRLPRPRPRPPPTPRP | 1.97
86 | RRIRMRPPRLPRPRPRPPQCPRP | 0.566
87 | RRIRMRPPRLPRPRPRPPQEPRP | 0.161
88 | RRIRMRPPRLPRPRPRPPQGPRP | 0.834
89 | RRIRMRPPRLPRPRPRPPQWPRP | 0.982
90 | RRIRMRPPRLPRPRPRPPRNPRP | 1.27
91 | RRIRMRPPRLPRPRPRPPRVPRP | 1.23
92 | RRIRMRPPRLPRPRPRPPSDPRP | 1.06
93 | RRIRMRPPRLPRPRPRPPSKPRP | 0.557
94 | RRIRMRPPRLPRPRPRPPVPPRP | 1.01
95 | RRIRMRPPRLPRPRPRPPYCPRP | 0.0371
96 | RRIRMRPPRLPRPRPRPPYNPRP | -0.575
97 | RRIRMRPPRLPRPRPRPQAEPRP | 3.28
98 | RRIRMRPPRLPRPRPRPQCNPRP | 0.041
99 | RRIRMRPPRLPRPRPRPQCQPRP | -0.0148
100 | RRIRMRPPRLPRPRPRPQDQPRP | 0.228

Row | Sequence | shrunken log2 fold change
101 | RRIRMRPPRLPRPRPRPQDWPRP | 0.00698
102 | RRIRMRPPRLPRPRPRPQEDPRP | -0.0231
103 | RRIRMRPPRLPRPRPRPQEQPRP | 0.186
104 | RRIRMRPPRLPRPRPRPQFSPRP | 0.0281
105 | RRIRMRPPRLPRPRPRPQFTPRP | 0.095
106 | RRIRMRPPRLPRPRPRPQGMPRP | 0.0363
107 | RRIRMRPPRLPRPRPRPQHFPRP | 0.00913
108 | RRIRMRPPRLPRPRPRPQHIPRP | -0.103
109 | RRIRMRPPRLPRPRPRPQHRPRP | 0.0767
110 | RRIRMRPPRLPRPRPRPQKCPRP | -0.0433
111 | RRIRMRPPRLPRPRPRPQKRPRP | 0.489
112 | RRIRMRPPRLPRPRPRPQLCPRP | 0.237
113 | RRIRMRPPRLPRPRPRPQMQPRP | 0.108
114 | RRIRMRPPRLPRPRPRPQNIPRP | -0.726
115 | RRIRMRPPRLPRPRPRPQPMPRP | 0.838
116 | RRIRMRPPRLPRPRPRPQQWPRP | 0.153
117 | RRIRMRPPRLPRPRPRPQRCPRP | 0.551
118 | RRIRMRPPRLPRPRPRPQRGPRP | 1.24
119 | RRIRMRPPRLPRPRPRPQSNPRP | 0.0557
120 | RRIRMRPPRLPRPRPRPQTAPRP | 0.524
121 | RRIRMRPPRLPRPRPRPQTVPRP | 0.291
122 | RRIRMRPPRLPRPRPRPQVLPRP | 0.25
123 | RRIRMRPPRLPRPRPRPQWRPRP | 1.5
124 | RRIRMRPPRLPRPRPRPRCGPRP | 0.733
125 | RRIRMRPPRLPRPRPRPRCIPRP | -0.0309

Row | Sequence | shrunken log2 fold change
126 | RRIRMRPPRLPRPRPRPREHPRP | 0.402
127 | RRIRMRPPRLPRPRPRPRENPRP | 0.265
128 | RRIRMRPPRLPRPRPRPRFCPRP | 1.63
129 | RRIRMRPPRLPRPRPRPRHMPRP | 0.418
130 | RRIRMRPPRLPRPRPRPRHNPRP | -0.0227
131 | RRIRMRPPRLPRPRPRPRHRPRP | 0.249
132 | RRIRMRPPRLPRPRPRPRIAPRP | 0.786
133 | RRIRMRPPRLPRPRPRPRIEPRP | -0.0903
134 | RRIRMRPPRLPRPRPRPRIFPRP | 0.011
135 | RRIRMRPPRLPRPRPRPRIMPRP | 0.049
136 | RRIRMRPPRLPRPRPRPRITPRP | 0.122
137 | RRIRMRPPRLPRPRPRPRNRPRP | 0.687
138 | RRIRMRPPRLPRPRPRPRRNPRP | 0.807
139 | RRIRMRPPRLPRPRPRPRTPPRP | 1.26
140 | RRIRMRPPRLPRPRPRPRWEPRP | 0.814
141 | RRIRMRPPRLPRPRPRPSAFPRP | 1.26
142 | RRIRMRPPRLPRPRPRPSCCPRP | 0.291
143 | RRIRMRPPRLPRPRPRPSCGPRP | 0.687
144 | RRIRMRPPRLPRPRPRPSDCPRP | 0.206
145 | RRIRMRPPRLPRPRPRPSDHPRP | 0.386
146 | RRIRMRPPRLPRPRPRPSDRPRP | 0.0714
147 | RRIRMRPPRLPRPRPRPSEPPRP | 0.33
148 | RRIRMRPPRLPRPRPRPSFFPRP | 0.0666
149 | RRIRMRPPRLPRPRPRPSIEPRP | 0.0914
150 | RRIRMRPPRLPRPRPRPSITPRP | -0.0273
